Laboratory results from patent publication US20090117126A1 (UCB, published 2009).

Columns and labels:
recombinant human IL-17 [1] = molecular target: T1, recombinant human IL-17 (human, UniProt Q16552 20-155, limits assumed); test: cell-based or functional assay
T1 sequence (looked up): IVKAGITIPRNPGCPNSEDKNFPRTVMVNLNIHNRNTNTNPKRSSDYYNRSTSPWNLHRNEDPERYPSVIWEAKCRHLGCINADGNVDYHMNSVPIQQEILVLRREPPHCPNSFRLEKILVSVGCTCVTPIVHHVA

recombinant human IL-17 [2] = molecular target: T1, recombinant human IL-17; test: BIAcore 3000; mean of the five replicates of Table 1; mean of the replicates of Table 1; CDP435 captured by anti-human IgG F(ab)2, IL-17 in solution
Description: The assay format used CDP435 captured by anti-human IgG F(ab)₂ with a titration of recombinant human IL-17 in the solution phase. BIA (Biamolecular Interaction Analysis) was performed using a BIAcore 3000 (BIAcore AB). Affinipure F(ab′)₂ Fragment goat anti-human IgG, F(ab)₂ fragment specific (Jackson ImmunoResearch) was immobilised on a CM5 Sensor Chip via amine coupling chemistry to a capture level of ≈9000 response units (RUs). HBS-EP buffer (10 mM HEPES pH 7.4, 0.15 M NaCl, 3 mM EDTA, 0.005% Surfactant P20, BIAcore AB) was used as the running buffer with a flow rate of 10 μl/min. An injection of CDP435 was made at 10 μl/min in order to obtain around 200 Ru of Fab captured by the immobilised anti-human IgG-F(ab)₂ to the surface. Human IL-17 was titrated over the captured antibody Fab fragment at various concentrations at a flow rate of 30 μl/min. The surface was regenerated by a 2×10 μl injection of 40 mM HCl, followed by a 5 μl injection of 5 mM NaOH at a flow rate of 10 μl/min.
Background subtraction binding curves were analysed using the BIAevaluation software (version 3.2) following standard procedures. Kinetic parameters were determined from the fitting algorithm. The affinity was measured at human IL-17 concentrations at or below 12.5 nM.

monkey recombinant IL-17 = monkey recombinant IL-17 (monkey); test: cell-based or functional assay
recombinant human IL-17 [3] = molecular target: T1, recombinant human IL-17; test: cell-based or functional assay; remark: listed apart in the source

B1: murine monoclonal antibody IL-17F4.100 (antibody, V domains shown)
VH: QVQLKESGPGLVAPSQSLSITCTVSGFSLTTYGVHWIRQPPGKGLEWLVVIWSDGYTTYNSALKSRLSITKDNSKSQVFLKMNSLQTDDTAMYYCARNDGDYFYSMDYWGQGTSVTVSS
VL: DVVMTQTPLSLPVSLGDQASFSCRSSQSLVHSNGNTYLHWYLQKPGQSPKLLIYKVSNRFSGVPDRFSGSGSGTDFTLKISRVEAEDLGVYFCSQSTHVPTFGGGTKLEIKR
IC50 (read off the curve) (recombinant human IL-17 [1]): ~0.2 µg/mL

B2: CDP435 (PEGylated Fab fragment, gH11gL3 graft, 2 x 20 kDa PEG) (Fab, V domains shown)
VH: EVQLVESGGGVVQPGGSLRLSCAVSGFSLTTYGVHWVRQAPGKGLEWVAVIWSDGYTTYNSALKSRFTISRDNSKNTVYLQMNSLRAEDTAVYYCARNDGDYFYSMDYWGQGTLVTVSS
VL: DVQMTQSPSSLSASVGDRVTITCRSSQSLVHSNGNTYLHWYQQKPGKAPKLLIYKVSNRFSGVPSRFSGSGSGTDFTLTISSLQPEDFATYYCSQSTHVPTFGQGTKVEIKR
modifications: 20 kDa PEG-maleimide on the interchain cysteine of CL (position 214 by Kabat numbering, 218 by sequential numbering); 20 kDa PEG-maleimide on the interchain cysteine of CH1 (cys-233 by Kabat numbering, cys-222 by sequential numbering; C-terminal residue)
notes: no interchain disulphide after PEGylation
Kd (recombinant human IL-17 [2]): 224 pM
IC50, monkey IL-17 (25 ng/ml) induced IL-6 production from Hela cells (monkey recombinant IL-17): 0.147 µg/mL
IC50, human IL-17 (25 ng/ml) induced IL-6 production from Hela cells (recombinant human IL-17 [3]): 0.158 µg/mL

B3: antibody Fab fragment of CDP435 (not PEGylated) (Fab, V domains shown)
VH: B2 VH
VL: B2 VL
IC50 (read off the curve) (recombinant human IL-17 [1]): ~0.2 µg/mL
